Patent US20230346934A1

Target: PDL1 on DMS 273-PDL1 target cells (UniProt Q9NZQ7)
Experiment: cell-based or functional assay

UniProt Q9NZQ7, sequence (Q9NZQ7 19-290 limits assumed): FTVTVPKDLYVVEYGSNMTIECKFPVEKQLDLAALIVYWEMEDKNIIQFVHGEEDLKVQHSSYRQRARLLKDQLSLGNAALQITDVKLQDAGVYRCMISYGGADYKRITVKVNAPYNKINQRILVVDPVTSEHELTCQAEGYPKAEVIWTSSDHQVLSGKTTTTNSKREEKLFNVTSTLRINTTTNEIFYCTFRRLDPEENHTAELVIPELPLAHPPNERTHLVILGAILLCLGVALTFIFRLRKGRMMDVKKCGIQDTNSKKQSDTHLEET

Substance | cytokine secretion (IL-2, IFNγ; Meso Scale Discovery) [fold]
HA PD1.CD28 chimeric switch receptor | > 10
WT PD1.CD28 chimeric switch receptor | > 10
